Laboratory results reported in the supplement of paper PMC7877785.
± gives the uncertainty stated by the source.

Test: self-splicing fitness, log relative to wild type (ln ratio); higher = more splicing; Tetrahymena group I intron in knt gene, E. coli kanamycin selection, DiMSum; sequences stand for … in CUCUCU…GGAGGGAAAAGUUAUCAGGCAUGCACCUGGUAGCUAGUCUUUAAACCAAUAGAUUGCAUCGGUUUAAAAGGCAAGACCGUCAAAUUGCGGGAAAGGGGUCAACAGCCGUUCAGUACCAAGUCUCAGGGGAAACUUUGAGAUGGCCUUGCAAAGGGUAUGGUAAUAAGCUGACGGACAUGGUCCUAACCACGCAGCCAAGUCCUAAGUCAACAGAUCUUCUGUUGAUAUGGAUGCAGUUCACAGACUAAAUGUCGGUCGGGGAAGAUGUAUUCUUCUCAUAAGAUAUAGUCGGACCUCUCCUUAAUGGGAGCUAGCGGAUGAAGUGAUGCAACACUGGAGCCGCUGGGAACUAAUUUGUAUGCGAAAGUAUAUUGAUUAGUUUUGGAGUACUCGUGGUCG
Method in brief: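 The eight P1ex-region nucleotides of an intron in the knt kanamycin-resistance gene on pET-22b(+) were all randomised and the library put into E. coli BL21(DE3). Six replicate transformations were grown overnight at 37°C or 30°C on LB agar with or without 25 μg/mL kanamycin, together with 100 μg/mL carbenicillin, 50 μM IPTG and 0.2% rhamnose. Colonies were pooled and amplicon-sequenced on an Illumina HiSeq 2500. Fitness from DiMSum is the error-weighted combination of wild-type-normalised replicate fold changes, kanamycin over none.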

## GUAUAGCAAUAUUACGUUUA
30 °C
  self-splicing fitness (ln): -2.74 ± 0.19
37 °C
  self-splicing fitness (ln): -1.52 ± 0.17

## CAUAAGCAAUAUUACGAUAG
30 °C
  self-splicing fitness (ln): 0.359 ± 0.072
37 °C
  self-splicing fitness (ln): 0.232 ± 0.084

## AACGAGCAAUAUUACGCCAG
30 °C
  self-splicing fitness (ln): -4.01 ± 0.37
37 °C
  self-splicing fitness (ln): -1.56 ± 0.32

## AUCAAGCAAUAUUACGUACC
30 °C
  self-splicing fitness (ln): -0.82 ± 0.12
37 °C
  self-splicing fitness (ln): -0.953 ± 0.17

## UUCAAGCAAUAUUACGUAGC
30 °C
  self-splicing fitness (ln): -4.06 ± 0.26
37 °C
  self-splicing fitness (ln): -2.3 ± 0.25

## UCCCAGCAAUAUUACGACUA
30 °C
  self-splicing fitness (ln): -2.12 ± 0.15
37 °C
  self-splicing fitness (ln): -1.15 ± 0.15

## UCAGAGCAAUAUUACGAUUU
30 °C
  self-splicing fitness (ln): -3.82 ± 0.3
37 °C
  self-splicing fitness (ln): -1.67 ± 0.22

## ACAUAGCAAUAUUACGGGGG
30 °C
  self-splicing fitness (ln): -3.09 ± 0.14
37 °C
  self-splicing fitness (ln): -2.58 ± 0.2

## GCCCAGCAAUAUUACGUGUC
30 °C
  self-splicing fitness (ln): -0.887 ± 0.053
37 °C
  self-splicing fitness (ln): -0.349 ± 0.066

## GCGUAGCAAUAUUACGGUUG
30 °C
  self-splicing fitness (ln): -2.96 ± 0.13
37 °C
  self-splicing fitness (ln): -1.75 ± 0.14

## CACAAGCAAUAUUACGAACA
30 °C
  self-splicing fitness (ln): -2.61 ± 0.18
37 °C
  self-splicing fitness (ln): -1.72 ± 0.12

## CUAUAGCAAUAUUACGGCGU
30 °C
  self-splicing fitness (ln): -4.65 ± 0.46
37 °C
  self-splicing fitness (ln): -2.24 ± 0.43

## AACAAGCAAUAUUACGGAUU
30 °C
  self-splicing fitness (ln): -1.38 ± 0.071
37 °C
  self-splicing fitness (ln): -0.641 ± 0.077

## GGCGAGCAAUAUUACGCGAA
30 °C
  self-splicing fitness (ln): -2.45 ± 0.2
37 °C
  self-splicing fitness (ln): -1.33 ± 0.16

## CAUAAGCAAUAUUACGUUUG
30 °C
  self-splicing fitness (ln): -3.3 ± 0.17
37 °C
  self-splicing fitness (ln): -2.46 ± 0.18

## CUAAAGCAAUAUUACGCGCA
30 °C
  self-splicing fitness (ln): -2.92 ± 0.23
37 °C
  self-splicing fitness (ln): -1.64 ± 0.33

## AACAAGCAAUAUUACGCAUC
30 °C
  self-splicing fitness (ln): -2.41 ± 0.15
37 °C
  self-splicing fitness (ln): -1.77 ± 0.18

## ACGGAGCAAUAUUACGAGUA
30 °C
  self-splicing fitness (ln): -2.03 ± 0.41
37 °C
  self-splicing fitness (ln): -1.94 ± 0.33

## ACCCAGCAAUAUUACGUCUC
30 °C
  self-splicing fitness (ln): -1.89 ± 0.078
37 °C
  self-splicing fitness (ln): -0.796 ± 0.094

## AAGGAGCAAUAUUACGGCAU
30 °C
  self-splicing fitness (ln): -2.77 ± 0.18
37 °C
  self-splicing fitness (ln): -2.05 ± 0.23

## AUUCAGCAAUAUUACGAAUA
30 °C
  self-splicing fitness (ln): -2.49 ± 0.23
37 °C
  self-splicing fitness (ln): -1.08 ± 0.17

## CGCAAGCAAUAUUACGCUUG
30 °C
  self-splicing fitness (ln): -2.74 ± 0.2
37 °C
  self-splicing fitness (ln): -1.87 ± 0.21

## UUAGAGCAAUAUUACGUCAA
30 °C
  self-splicing fitness (ln): -1.59 ± 0.16
37 °C
  self-splicing fitness (ln): -1.15 ± 0.22

## CGUGAGCAAUAUUACGGCUA
30 °C
  self-splicing fitness (ln): -1.68 ± 0.14
37 °C
  self-splicing fitness (ln): -1.12 ± 0.14

## CUCCAGCAAUAUUACGAGCU
30 °C
  self-splicing fitness (ln): -4.01 ± 0.28
37 °C
  self-splicing fitness (ln): -2.44 ± 0.23

## AGGAAGCAAUAUUACGGUCG
30 °C
  self-splicing fitness (ln): -0.601 ± 0.1
37 °C
  self-splicing fitness (ln): 0.213 ± 0.14

## CUUUAGCAAUAUUACGGUCU
30 °C
  self-splicing fitness (ln): -3.25 ± 0.2
37 °C
  self-splicing fitness (ln): -3.94 ± 0.36

## GAUGAGCAAUAUUACGACGC
30 °C
  self-splicing fitness (ln): -0.267 ± 0.15
37 °C
  self-splicing fitness (ln): 0.408 ± 0.23

## AGAGAGCAAUAUUACGAAUC
30 °C
  self-splicing fitness (ln): -3.68 ± 0.47
37 °C
  self-splicing fitness (ln): -2.06 ± 0.37

## GCUAAGCAAUAUUACGGAUC
30 °C
  self-splicing fitness (ln): -0.406 ± 0.11
37 °C
  self-splicing fitness (ln): -0.265 ± 0.17

## GGGUAGCAAUAUUACGGUUA
30 °C
  self-splicing fitness (ln): -1.43 ± 0.14
37 °C
  self-splicing fitness (ln): -0.344 ± 0.12

## AAUCAGCAAUAUUACGUCUC
30 °C
  self-splicing fitness (ln): -0.509 ± 0.091
37 °C
  self-splicing fitness (ln): -0.314 ± 0.093

## ACACAGCAAUAUUACGAUCG
30 °C
  self-splicing fitness (ln): -0.738 ± 0.077
37 °C
  self-splicing fitness (ln): -0.032 ± 0.1

## UCGCAGCAAUAUUACGGGGG
30 °C
  self-splicing fitness (ln): -2.52 ± 0.15
37 °C
  self-splicing fitness (ln): -1.86 ± 0.17

## ACCGAGCAAUAUUACGGCUA
30 °C
  self-splicing fitness (ln): -0.869 ± 0.096
37 °C
  self-splicing fitness (ln): -0.288 ± 0.091

## UAUAAGCAAUAUUACGUCCU
30 °C
  self-splicing fitness (ln): -1.28 ± 0.11
37 °C
  self-splicing fitness (ln): 0.43 ± 0.14

## AAUCAGCAAUAUUACGGUCC
30 °C
  self-splicing fitness (ln): -0.242 ± 0.085
37 °C
  self-splicing fitness (ln): -0.118 ± 0.1
